B1: FD-5D Fab (Fab, V domains shown)
VH: EVQLVESGGGLVQPGGSLRLSCAASGFTFSSYSMNWVRQAPGKGLEWVSYISSSSSTIYYADSVKGRFTISRDNAKNSLYLQMNSLRAEDTAVYYCASPGGITAAGTSVLFGYYGMDVWGQGTTVTVSS
VL: not shown
B2: FI-3A Fab (Fab, V domains shown)
VH: EVQLLESGGGLIQPGGSLRLSCAASGFTVSSNYMSWVRQAPGKGLEWVSVIYSGGSTYYADSVKGRFTISRDNSKNTLYLQMNSLRAEDTAVYYCARDHVRPGMNIWGQGTMVTVSS
VL: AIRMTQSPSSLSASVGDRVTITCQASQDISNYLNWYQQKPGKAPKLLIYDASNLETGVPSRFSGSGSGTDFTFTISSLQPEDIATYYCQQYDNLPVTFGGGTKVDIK
B3: FD-11A Fab (Fab, V domains shown)
VH: EVQLVESGGGVVQPGRSLRLSCAASGFTFSSYGMHWVRQAPGKGLEWVAVIWYDGSNKYYADSVKGRFTISRDNSKNTLYLQMNSLRAEDTAVYYCAKGPDILTGYYNYYYYGMDVWGQGTMVTVSS
VL: QSVLTQPPSVSGAPGQRVTISCTGSSSNIGAGYDVHWYQQLPGTAPKLLIYGNSNRPSGVPDRFSGSKSGTSASLAITGLQAEDEADYYCQSYDSSLSGFYVVFGGGTKLTVL

Molecular target: T1, SARS-CoV-2 receptor-binding domain (RBD), His-tagged (SARS-CoV-2, UniProt P0DTC2)
T1 construct: also called viral RBD; His-tagged RBD
Assay: crystal structure
Settings: both partners purified

Row | Binder | binding result
1 | B1 | binds
2 | B2 | binds
3 | B3 | binds

From PMC8690919 (Theranostics, 2022)
